# Test results taken from patent US20190374506.
# B1: Neural Precursor Cell Expressed Developmentally Down-Regulated Protein 4 polypeptide (NEDD4-1) (protein)
# chain: MATCAVEVFGLLEDEENSRIVRVRVIAGIGLAKKDILGASDPYVRVTLYDPMNGVLTSVQTKTIKKSLNPKWNEEILFRVHPQQHRLLFEVFDENRLTRDDFLGQVDVPLYPLPTENPRLERPYTFKDFVLHPRSHKSRVKGYLRLKMTYLPKTSGSEDDNAEQAEELEPGWVVLDQPDAACHLQQQQEPSPLPPGWEERQDILGRTYYVNHESRRTQWKRPTPQDNLTDAENGNIQLQAQRAFTTRRQISEETESVDNRESSENWEIIREDEATMYSNQAFPSPPPSSNLDVPTHLAEELNARLTIFGNSAVSQPASSSNHSSRRGSLQAYTFEEQPTLPVLLPTSSGLPPGWEEKQDERGRSYYVDHNSRTTTWTKPTVQATVETSQLTSSQSSAGPQSQASTSDSGQQVTQPSEIEQGFLPKGWEVRHAPNGRPFFIDHNTKTTTWEDPRLKIPAHLRGKTSLDTSNDLGPLPPGWEERTHTDGRIFYINHNIKRTQWEDPRLENVAITGPAVPYSRDYKRKYEFFRRKLKKQNDIPNKFEMKLRRATVLEDSYRRIMGVKRADFLKARLWIEFDGEKGLDYGGVAREWFFLISKEMFNPYYGLFEYSATDNYTLQINPNSGLCNEDHLSYFKFIGRVAGMAVYHGKLLDGFFIRPFYKMMLHKPITLHDMESVDSEYYNSLRWILENDPTELDLRFIIDEELFGQTHQHELKNGGSEIVVTNKNKKEYIYLVIQWRFVNRIQKQMAAFKEGFFELIPQDLIKIFDENELELLMCGLGDVDVNDWREHTKYKNGYSANHQVIQWFWKAVLMMDSEKRIRLLQFVTGTSRVPMNGFAELYGSNGPQSFTVEQWGTPEKLPRAHTCFNRLDLPPYESFEELWDKLQMAIENTQGFDGVD
# Target: Flag-PTEN
protein,measurement,value
B1,"in vitro ubiquitination of Flag-PTEN (E1, E2, ubiquitin; western blot with anti-PTEN antibody), NEDD4-1 alone",incubation of purified NEDD4-1 alone could not efficiently promote PTEN K27-linked poly-ubiquitination
same,"in vitro ubiquitination of Flag-PTEN, WWP1 and NEDD4-1 both present","in the presence of both WWP1 and NEDD4-1, PTEN was robustly K27-linked poly-ubiquitinated"
